From patent publication US20120130079A1

Legend:
[1] = biological target: purified His-tagged Stat3 (murine Stat3, recombinant, expressed in BL21(DE3)) (murine) (UniProt P42227); assay: fluorescence polarization competition; competitor/probe 5-carboxyfluorescein-GpYLPQTV-NH2 (10 nM), His-Stat3 150 nM
[2] = biological target: purified His-tagged Stat3 (murine Stat3, recombinant, expressed in BL21(DE3)) (murine) (UniProt P42227); assay: SPR (SensiQ), peptide as analyte over His-Stat3 immobilised on HisCap/Ni-NTA sensor chip

Sequence of purified His-tagged Stat3 (murine Stat3, recombinant, expressed in BL21(DE3)) (murine) (P42227 whole entry): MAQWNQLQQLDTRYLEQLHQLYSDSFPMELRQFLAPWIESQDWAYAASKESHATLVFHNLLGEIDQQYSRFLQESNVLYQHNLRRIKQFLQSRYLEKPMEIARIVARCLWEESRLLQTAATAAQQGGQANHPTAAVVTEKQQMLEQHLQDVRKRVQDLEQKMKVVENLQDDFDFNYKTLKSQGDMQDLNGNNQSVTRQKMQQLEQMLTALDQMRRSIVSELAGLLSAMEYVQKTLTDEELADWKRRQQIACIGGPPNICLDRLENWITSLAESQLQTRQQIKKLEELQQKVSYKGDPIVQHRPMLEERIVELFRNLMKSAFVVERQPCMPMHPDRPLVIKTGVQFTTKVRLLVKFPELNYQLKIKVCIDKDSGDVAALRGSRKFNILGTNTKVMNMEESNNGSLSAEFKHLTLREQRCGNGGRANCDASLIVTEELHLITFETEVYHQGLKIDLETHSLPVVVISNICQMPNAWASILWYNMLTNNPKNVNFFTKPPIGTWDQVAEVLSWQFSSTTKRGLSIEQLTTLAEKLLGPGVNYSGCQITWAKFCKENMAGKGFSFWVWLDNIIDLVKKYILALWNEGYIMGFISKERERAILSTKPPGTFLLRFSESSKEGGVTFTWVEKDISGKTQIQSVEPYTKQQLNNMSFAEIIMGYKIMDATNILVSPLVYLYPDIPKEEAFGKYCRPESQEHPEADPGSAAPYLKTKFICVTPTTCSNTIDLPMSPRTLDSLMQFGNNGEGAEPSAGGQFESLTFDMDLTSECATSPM

IC50 [1]: 0.3 µM
Kd [2]: 0.024 µM
Substance: GpYLPQTV-NH2, high affinity Stat3-binding phosphoTyr peptide derived from the interleukin-6 receptor subunit gp-130
